Measurements taken from US9988429B2, “Glucagon analogues” (Zealand Pharma A/S, priority 2013, dated 2018).
Starred links: 1 amine or outer side, 2 acyl side, 3 side chain; linkers in the order of their positions; H or OH if unused. Non-standard residues stand in square brackets, D forms with d. Groups on a side chain read outwards from the residue. *: point of attachment. γGlu = O=C(O)[C@H](CCC(=O)[*:2])N[*:1]; Palmitoyl = CCCCCCCCCCCCCCCC(=O)*; Ac4c = NC1(C(=O)O)CCC1; Ac3c = NC1(C(=O)O)CC1

T1: endogenous GLP-1 receptor of a murine insulinoma cell line (murine, UniProt O35659 22-463)
T1 sequence (looked up): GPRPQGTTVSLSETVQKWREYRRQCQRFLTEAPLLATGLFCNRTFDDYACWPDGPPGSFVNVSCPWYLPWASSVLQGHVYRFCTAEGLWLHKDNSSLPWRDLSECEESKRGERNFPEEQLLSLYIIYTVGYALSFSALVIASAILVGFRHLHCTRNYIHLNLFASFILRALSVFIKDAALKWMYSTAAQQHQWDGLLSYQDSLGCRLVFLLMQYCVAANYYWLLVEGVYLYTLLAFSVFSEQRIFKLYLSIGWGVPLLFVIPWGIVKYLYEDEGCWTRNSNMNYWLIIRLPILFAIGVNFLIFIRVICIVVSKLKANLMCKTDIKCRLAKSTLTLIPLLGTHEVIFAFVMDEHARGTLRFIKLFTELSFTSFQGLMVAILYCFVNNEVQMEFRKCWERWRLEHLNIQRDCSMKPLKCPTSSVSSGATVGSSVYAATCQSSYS

B1: Compound 5: H-HSHGTFTSDYSKYLDS-K(Hexadecanoyl-isoGlu)-AAHDFVEWLLSA-NH2 (peptide)
peptide: H-HSHGTFTSDYSKYLDSK([γGlu-Palmitoyl])AAHDFVEWLLSA-NH2
SMILES: CCCCCCCCCCCCCCCC(=O)N[C@@H](CCC(=O)NCCCC[C@H](NC(=O)[C@H](CO)NC(=O)[C@H](CC(=O)O)NC(=O)[C@H](CC(C)C)NC(=O)[C@H](Cc1ccc(O)cc1)NC(=O)[C@H](CCCCN)NC(=O)[C@H](CO)NC(=O)[C@H](Cc1ccc(O)cc1)NC(=O)[C@H](CC(=O)O)NC(=O)[C@H](CO)NC(=O)[C@@H](NC(=O)[C@H](Cc1ccccc1)NC(=O)[C@@H](NC(=O)CNC(=O)[C@H](Cc1c[nH]cn1)NC(=O)[C@H](CO)NC(=O)[C@@H](N)Cc1c[nH]cn1)[C@@H](C)O)[C@@H](C)O)C(=O)N[C@@H](C)C(=O)N[C@@H](C)C(=O)N[C@@H](Cc1c[nH]cn1)C(=O)N[C@@H](CC(=O)O)C(=O)N[C@@H](Cc1ccccc1)C(=O)N[C@H](C(=O)N[C@@H](CCC(=O)O)C(=O)N[C@@H](Cc1c[nH]c2ccccc12)C(=O)N[C@@H](CC(C)C)C(=O)N[C@@H](CC(C)C)C(=O)N[C@@H](CO)C(=O)N[C@@H](C)C(N)=O)C(C)C)C(=O)O
B2: Compound 11: H-HAQGTFTSDYSKYLDE-K(Hexadecanoyl-isoGlu)-AAKDFIEWLESA-NH2 (peptide)
peptide: H-HAQGTFTSDYSKYLDEK([γGlu-Palmitoyl])AAKDFIEWLESA-NH2
B3: Compound 12: H-H-DAla-QGTFTSDYSKYLDE-K(Hexadecanoyl-isoGlu)-AAKDFIEWLESA-NH2 (peptide)
peptide: HXQGTFTSDYSKYLDEKAAKDFIEWLESA
modifications: position 2 is DAla (D-alanine); Lys17 side chain conjugated to hexadecanoyl-isoGlu; C-terminal amide (NH2)
B4: Compound 15: H-H-Ac4c-HGTFTSDYSKYLDE-K(Hexadecanoyl-isoGlu)-AAKDFIEWLESA-NH2 (peptide)
peptide: H-H[Ac4c]HGTFTSDYSKYLDEK([γGlu-Palmitoyl])AAKDFIEWLESA-NH2
B5: Compound 3: H-H-Ac3c-QGTFTSDYSKYLDS-K(Hexadecanoyl-isoGlu)-AAHDFVEWLLSA-NH2 (peptide)
peptide: H-H[Ac3c]QGTFTSDYSKYLDSK([γGlu-Palmitoyl])AAHDFVEWLLSA-NH2
SMILES: CCCCCCCCCCCCCCCC(=O)N[C@@H](CCC(=O)NCCCC[C@H](NC(=O)[C@H](CO)NC(=O)[C@H](CC(=O)O)NC(=O)[C@H](CC(C)C)NC(=O)[C@H](Cc1ccc(O)cc1)NC(=O)[C@H](CCCCN)NC(=O)[C@H](CO)NC(=O)[C@H](Cc1ccc(O)cc1)NC(=O)[C@H](CC(=O)O)NC(=O)[C@H](CO)NC(=O)[C@@H](NC(=O)[C@H](Cc1ccccc1)NC(=O)[C@@H](NC(=O)CNC(=O)[C@H](CCC(N)=O)NC(=O)C1(NC(=O)[C@@H](N)Cc2c[nH]cn2)CC1)[C@@H](C)O)[C@@H](C)O)C(=O)N[C@@H](C)C(=O)N[C@@H](C)C(=O)N[C@@H](Cc1c[nH]cn1)C(=O)N[C@@H](CC(=O)O)C(=O)N[C@@H](Cc1ccccc1)C(=O)N[C@H](C(=O)N[C@@H](CCC(=O)O)C(=O)N[C@@H](Cc1c[nH]c2ccccc12)C(=O)N[C@@H](CC(C)C)C(=O)N[C@@H](CC(C)C)C(=O)N[C@@H](CO)C(=O)N[C@@H](C)C(N)=O)C(C)C)C(=O)O
B6: Compound 1: H-HAQGTFTSDYSKYLDS-K(Hexadecanoyl-isoGlu)-AAHDFVEWLLSA-NH2 (peptide)
peptide: H-HAQGTFTSDYSKYLDSK([γGlu-Palmitoyl])AAHDFVEWLLSA-NH2

What follows are binders tested against human glucagon receptor (Glucagon-R) (human, UniProt P47871 26-477) (assay: cell-based or functional assay).
Sequence of human glucagon receptor (Glucagon-R) (P47871 26-477): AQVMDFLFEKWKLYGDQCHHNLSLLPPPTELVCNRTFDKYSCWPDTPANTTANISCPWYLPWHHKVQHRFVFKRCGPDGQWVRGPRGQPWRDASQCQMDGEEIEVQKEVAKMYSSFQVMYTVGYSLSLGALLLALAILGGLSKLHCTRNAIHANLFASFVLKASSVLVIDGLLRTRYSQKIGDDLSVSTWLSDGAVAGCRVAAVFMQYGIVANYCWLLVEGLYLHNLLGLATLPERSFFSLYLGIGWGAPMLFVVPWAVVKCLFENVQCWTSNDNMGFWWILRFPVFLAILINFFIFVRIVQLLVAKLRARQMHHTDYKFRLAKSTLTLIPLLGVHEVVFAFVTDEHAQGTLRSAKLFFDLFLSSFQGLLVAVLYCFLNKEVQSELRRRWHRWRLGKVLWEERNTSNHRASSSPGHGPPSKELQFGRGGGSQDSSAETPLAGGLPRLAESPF

| Binder | EC50 hGCGR CHO-K1 [nM] (cAMP, AlphaScreen) |
| --- | --- |
| B1 | 0.12 |
| B2 | 0.69 |
| B3 | 1.27 |
| B4 | 0.1 |
| B5 | 0.62 |

Each binder was assayed against human glucagon-like peptide 1 receptor (GLP-1R) (human, UniProt P43220 24-463) (assay: cell-based or functional assay).

| Binder | EC50 hGLP-1R CHO-K1 [nM] (cAMP, AlphaScreen) |
| --- | --- |
| B1 | 0.27 |
| B6 | 0.52 |
| B2 | 0.14 |
| B3 | 0.14 |

Each binder was assayed against T1, endogenous GLP-1 receptor of a murine … (assay: cell-based or functional assay).

| Binder | EC50 [nM] (cAMP in murine insulinoma cell line) |
| --- | --- |
| B1 | 0.35 |
| B6 | 0.12 |
| B5 | 0.27 |

These binders were tested against endogenous glucagon receptor of primary rat hepatocytes (rat, UniProt P30082 27-485) (assay: cell-based or functional assay).
Sequence of endogenous glucagon receptor of primary rat hepatocytes (P30082 27-485): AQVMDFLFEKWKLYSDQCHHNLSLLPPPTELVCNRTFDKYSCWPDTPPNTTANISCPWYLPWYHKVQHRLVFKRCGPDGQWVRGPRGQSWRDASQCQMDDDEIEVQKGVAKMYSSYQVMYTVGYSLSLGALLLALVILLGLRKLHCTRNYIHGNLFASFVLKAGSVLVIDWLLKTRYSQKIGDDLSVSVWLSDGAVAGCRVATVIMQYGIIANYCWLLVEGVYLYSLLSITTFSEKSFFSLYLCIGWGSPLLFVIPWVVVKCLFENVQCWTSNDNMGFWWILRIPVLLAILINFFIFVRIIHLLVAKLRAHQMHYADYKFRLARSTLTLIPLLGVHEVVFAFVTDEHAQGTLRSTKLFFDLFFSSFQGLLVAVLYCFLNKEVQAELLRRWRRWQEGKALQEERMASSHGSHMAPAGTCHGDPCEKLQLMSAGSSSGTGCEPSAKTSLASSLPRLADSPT

| Binder | EC50 [nM] (inhibition of glycogen synthesis rate in primary rat hepatocytes) |
| --- | --- |
| B1 | 0.75 |
| B4 | 0.05 |
| B5 | 3.27 |
